Reference: publication PMC2749490

Test system: CC(C)C[C@H](NC(=O)[C@H](CO)NC(=O)[C@H](C)NC(=O)[C@H](CCCNC(=N)N)NC(=O)[C@H](CCCNC(=N)N)NC(=O)[C@@H](N)CC(C)C)C(=O)NCC(=O)O
Type: biochemical
Details: other: from the noncompetitive inhibition model fit; pH 7.4

PKA (Homo sapiens)
Km: 12 µM
